Measured values taken from publication PMC10401862, “A high-throughput dual system to screen polyphosphate kinase mutants for efficient ATP regeneration in L-theanine biocatalysis” (Biotechnology for Biofuels and Bioproducts, 2023).

B1: ChPPK (Cytophaga hutchinsonii ATCC 33406) (protein)
chain: MATDFSKLSKYVETLRVKPKQSIDLKKDFDTDYDHKMLTKEEGEELLNLGISKLSEIQEKLYASGTKSVLIVFQAMDAAGKDGTVKHIMTGLNPQGVKVTSFKVPSKIELSHDYLWRHYVALPATGEIGIFNRSHYENVLVTRVHPEYLLSEQTSGVTAIEQVNQKFWDKRFQQINNFEQHISENGTIVLKFFLHVSKKEQKKRFIERIELDTKNWKFSTGDLKERAHWKDYRNAYEDMLANTSTKQAPWFVIPADDKWFTRLLIAEIICTELEKLNLTFPTVSLEQKAELEKAKAELVAEKSSD
notes: synthesized gene expressed in E. coli BL21(DE3) from pXMJ-19, Ni-NTA purified
B2: ChPPK (Cytophaga hutchinsonii ATCC 33406; D82N) (protein)
chain: MATDFSKLSKYVETLRVKPKQSIDLKKDFDTDYDHKMLTKEEGEELLNLGISKLSEIQEKLYASGTKSVLIVFQAMDAAGKNGTVKHIMTGLNPQGVKVTSFKVPSKIELSHDYLWRHYVALPATGEIGIFNRSHYENVLVTRVHPEYLLSEQTSGVTAIEQVNQKFWDKRFQQINNFEQHISENGTIVLKFFLHVSKKEQKKRFIERIELDTKNWKFSTGDLKERAHWKDYRNAYEDMLANTSTKQAPWFVIPADDKWFTRLLIAEIICTELEKLNLTFPTVSLEQKAELEKAKAELVAEKSSD
notes: as for B1
B3: ChPPK (Cytophaga hutchinsonii ATCC 33406; K103E) (protein)
chain: MATDFSKLSKYVETLRVKPKQSIDLKKDFDTDYDHKMLTKEEGEELLNLGISKLSEIQEKLYASGTKSVLIVFQAMDAAGKDGTVKHIMTGLNPQGVKVTSFEVPSKIELSHDYLWRHYVALPATGEIGIFNRSHYENVLVTRVHPEYLLSEQTSGVTAIEQVNQKFWDKRFQQINNFEQHISENGTIVLKFFLHVSKKEQKKRFIERIELDTKNWKFSTGDLKERAHWKDYRNAYEDMLANTSTKQAPWFVIPADDKWFTRLLIAEIICTELEKLNLTFPTVSLEQKAELEKAKAELVAEKSSD
notes: as for B1

The proteins below were run on Nc1ncnc2c1ncn2[C@@H]1O[C@H](COP(=O)(O)OP(=O)(O)O)[C@@H](O)[C@H]1O (assay: purified protein). Details: 100 mM Tris-HCl pH 8.0, 35 °C, MgCl2, ADP 0.1 to 5 mM, polyP6 as co-substrate.
Type: biochemical, Cytophaga hutchinsonii

Question: Which Km does the source give for B1 here?
Answer: The Km was 1.39 ± 0.07 mM.

Question: And the kcat?
Answer: Its kcat is 10 ± 0.13 s⁻¹.

Question: What about the kcat/Km of the same protein?
Answer: The kcat/Km was 7220 M⁻¹ s⁻¹.

Question: How did the Km turn out when B2 was run?
Answer: The Km was 0.95 ± 0.03 mM.

Question: What about the kcat of the same protein?
Answer: Its kcat is 15.05 ± 0.04 s⁻¹.

Question: What about the kcat/Km of the same protein?
Answer: Its kcat/Km is 15800 M⁻¹ s⁻¹.

Question: Which Km does the source give for B3 here?
Answer: Its Km is 0.81 ± 0.12 mM.

Question: What about the kcat of the same protein?
Answer: Its kcat is 19.69 ± 0.12 s⁻¹.

Question: And the kcat/Km?
Answer: Its kcat/Km is 24300 M⁻¹ s⁻¹.
